Results: publication PMC9083542, “Small Molecule Inhibitor Targeting CDT1/Geminin Protein Complex Promotes DNA Damage and Cell Death in Cancer Cells” (Frontiers in Pharmacology, 2022)
Changes are numbered by the printed parent chain. One block for each molecule: values may come before it.

T1: CDT1 (Homo sapiens, UniProt Q9H211)
T1 construct: tCDT1 (residues 158–356); also miniCDT1 (residues 158–396); with Geminin
T1 sequence (Q9H211 158-356): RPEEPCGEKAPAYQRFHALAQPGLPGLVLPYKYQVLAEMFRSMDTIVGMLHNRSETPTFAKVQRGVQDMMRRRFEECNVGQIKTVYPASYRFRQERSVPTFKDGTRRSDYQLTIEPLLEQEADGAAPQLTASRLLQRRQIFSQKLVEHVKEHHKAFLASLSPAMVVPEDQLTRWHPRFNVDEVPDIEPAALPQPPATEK
T1 sequence (O75496 1-209 partner): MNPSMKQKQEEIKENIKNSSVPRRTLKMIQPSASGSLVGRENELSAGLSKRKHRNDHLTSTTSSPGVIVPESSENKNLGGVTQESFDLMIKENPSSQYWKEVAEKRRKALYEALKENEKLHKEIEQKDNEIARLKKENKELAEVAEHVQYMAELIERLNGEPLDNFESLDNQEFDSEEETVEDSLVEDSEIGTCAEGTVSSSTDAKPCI

T2: His-tagged human CDT1^158-396 (miniCDT1), wild type (human, UniProt Q9H211 158-396)
T2 construct: CDT1, human, residues 158-396 (miniCDT1); plasmid described in De Marco et al., 2009; also called His6-tagged miniCDT1; source: E. coli Rosetta 2 (DE3), expressed alone or co-expressed with Geminin variants, purified (Ni-NTA IMAC, SEC); not shown: His6, N-terminal, kept
T2 sequence (looked up): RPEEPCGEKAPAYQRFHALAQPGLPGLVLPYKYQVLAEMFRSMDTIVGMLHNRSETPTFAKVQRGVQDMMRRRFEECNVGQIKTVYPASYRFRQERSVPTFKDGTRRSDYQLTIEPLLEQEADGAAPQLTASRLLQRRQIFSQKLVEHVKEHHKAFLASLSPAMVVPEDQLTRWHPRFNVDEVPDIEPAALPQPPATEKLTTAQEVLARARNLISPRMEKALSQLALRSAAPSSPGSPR

T3: His-tagged human CDT1^158-396 Y170A (miniCDT1Y170A) (human, UniProt Q9H211 158-396, Y170A)
T3 construct: CDT1, human, residues 158-396 with Y170A, cloned into pET28a; also called His6-tagged miniCDT1^Y170A; source: E. coli Rosetta 2 (DE3), expressed alone or co-expressed with ΔDBGeminin, purified (Ni-NTA IMAC, SEC); not shown: His6, N-terminal, kept
T3 sequence (looked up): T2 sequence (looked up) with Y13A

T4: His-tagged human CDT1^158-396 F173A (miniCDT1F173A) (human, UniProt Q9H211 158-396, F173A)
T4 construct: CDT1, human, residues 158-396 with F173A, cloned into pET28a; source: E. coli Rosetta 2 (DE3), expressed alone or co-expressed with ΔDBGeminin, purified (Ni-NTA IMAC, SEC); not shown: His6, N-terminal, kept
T4 sequence (looked up): T2 sequence (looked up) with F16A

T5: CDT1-GFP (UniProt Q9H211 1-546)
T5 construct: CDT1 fused to GFP; plasmid and cell line from Xouri et al., 2007; also called MCF7 CDT1-GFP; source: MCF7 cells stably expressing CDT1-GFP, in fixed cells
T5 sequence (looked up): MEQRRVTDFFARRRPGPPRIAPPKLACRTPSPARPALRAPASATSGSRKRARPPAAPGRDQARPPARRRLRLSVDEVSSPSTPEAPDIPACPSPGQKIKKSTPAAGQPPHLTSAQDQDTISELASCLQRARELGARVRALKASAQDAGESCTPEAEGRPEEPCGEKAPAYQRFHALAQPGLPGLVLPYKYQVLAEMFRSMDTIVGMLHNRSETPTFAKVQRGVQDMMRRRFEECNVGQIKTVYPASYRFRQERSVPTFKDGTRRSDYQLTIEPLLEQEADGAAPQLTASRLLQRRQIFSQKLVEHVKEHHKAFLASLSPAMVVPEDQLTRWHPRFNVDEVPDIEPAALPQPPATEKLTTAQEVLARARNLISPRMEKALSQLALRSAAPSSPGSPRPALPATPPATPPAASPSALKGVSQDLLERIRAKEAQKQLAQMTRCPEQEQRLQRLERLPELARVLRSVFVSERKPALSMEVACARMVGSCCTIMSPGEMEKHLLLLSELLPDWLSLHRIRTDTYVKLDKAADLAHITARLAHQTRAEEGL

T6: His-tagged human CDT1^158-396 L176A (miniCDT1L176A) (human, UniProt Q9H211 158-396, L176A)
T6 construct: CDT1, human, residues 158-396 with L176A, cloned into pET28a; Could not be isolated on its own (limited solubility); used only as complex with ΔDBGeminin; source: E. coli Rosetta 2 (DE3), co-expressed with ΔDBGeminin, co-purified (Ni-NTA IMAC, SEC)
T6 sequence (looked up): T2 sequence (looked up) with L19A

B1: Full-length human Geminin (natural protein, UniProt O75496 1-209, looked up)
chain: T1 sequence (O75496 1-209 partner)
notes: Geminin, human, full length, cloned into pET22b; pET22b can add a C-terminal His tag (surmise); also called full length Geminin; source: E. coli Rosetta 2 (DE3), purified (Ni-NTA IMAC, SEC)
B2: Geminin-dHcRed (natural protein, UniProt O75496 1-209, looked up)
chain: T1 sequence (O75496 1-209 partner)
notes: Geminin fused to dHcRed; plasmid from Xouri et al., 2007; source: MCF7 cells, transiently transfected, in fixed cells
B3: Flag-tagged Geminin^28-209 (ΔDBGeminin) (domain or fragment, human, UniProt O75496 28-209, looked up)
chain: MIQPSASGSLVGRENELSAGLSKRKHRNDHLTSTTSSPGVIVPESSENKNLGGVTQESFDLMIKENPSSQYWKEVAEKRRKALYEALKENEKLHKEIEQKDNEIARLKKENKELAEVAEHVQYMAELIERLNGEPLDNFESLDNQEFDSEEETVEDSLVEDSEIGTCAEGTVSSSTDAKPCI
notes: Geminin, human, residues 28-209 (lacks the N-terminal stretch with the destruction box), cloned into pET22b; also called Flag-tagged ΔDBGeminin; source: E. coli Rosetta 2 (DE3), co-expressed with miniCDT1 variants, co-purified (Ni-NTA IMAC, SEC)
B4: untagged ΔDBGeminin (domain or fragment, human, UniProt O75496 28-209, looked up)
chain: B3 chain
notes: Geminin, human, residues 28-209 (ΔDBGeminin), without the Flag tag; also called untagged ΔDBGeminin (Geminin 28-209)
B5: His-tagged human CDT1^158-356 (tCDT1) (domain or fragment, UniProt Q9H211 158-356, looked up)
chain: T1 sequence (Q9H211 158-356)
notes: CDT1, human, residues 158-356 (tCDT1); plasmid described in De Marco et al., 2009; source: E. coli Rosetta 2 (DE3), purified (Ni-NTA IMAC, SEC)

Key:
CDT1 = molecular target: T1, CDT1; experiment: SPR inhibition of Geminin binding to immobilized CDT1; AlphaScreen IC50 […]; FRET in MCF7 cells
CDT1 (Homo sapiens) = CDT1 (Homo sapiens) (UniProt Q9H211); settings: cited from earlier work
[1] = molecular target: T2, His-tagged human CDT1^158-396 …; experiment: SPR; Biacore T100, 25°C; about 5.000 RU of miniCDT1 variants held on a Ni NTA chip via N-terminal His-tag; full-length Geminin injected at 1-100 nM; 20 mM Tris pH 7.5, 200 mM NaCl, 30 μl/min; settings: both partners purified
[2] = molecular target: T3, His-tagged human CDT1^158-396 Y170A …; experiment: as above; settings: both partners purified
[3] = molecular target: T4, His-tagged human CDT1^158-396 F173A …; experiment: as above; settings: both partners purified
CDT1-GFP = molecular target: T5, CDT1-GFP; experiment: FRET or BRET; sensitized emission FRET in fixed MCF7 cells stably expressing CDT1-GFP (or GFP-NLS as control), transiently transfected with Geminin-dHcRed; with DMSO or AF615 at 11, 33, 100 μM for 24 h; settings: partners not purified
[4] = molecular target: T3, His-tagged human CDT1^158-396 Y170A …; experiment: AlphaScreen or HTRF; HTS format and its optimisation (titration, data not shown): Flag-ΔDBGeminin/His6-miniCDT1Y170A complex 200-400 nM (300 nM in the screen), 10 μg/ml streptavidin Donor and nickel-chelate Acceptor beads, 25 nM biotinylated anti-Flag antibody; 25 mM Hepes pH 7.4, 100 mM NaCl, 0.2% BSA; settings: both partners purified
[5] = molecular target: T6, His-tagged human CDT1^158-396 L176A …; experiment: AlphaScreen or HTRF; competition: Flag-ΔDBGeminin/His6-miniCDT1 mutant complex at 50 nM, streptavidin Donor beads with biotinylated anti-Flag antibody, nickel-chelate Acceptor beads; increasing untagged ΔDBGeminin; 25 mM Hepes pH 7.4, 100 mM NaCl, 0.1% BSA; 1.5 h at RT; settings: both partners purified
[6] = molecular target: T4, His-tagged human CDT1^158-396 F173A …; experiment: as above; settings: both partners purified
[7] = molecular target: B1; experiment: SPR; Biacore T100, 25°C; tCDT1 (about 6.000 RU) or miniCDT1 covalently immobilised on a CM5 chip (amine coupling, pH 5.5); Geminin 12-966 nM with AF615 at 10 μM, 100 μM, 1 mM (20% DMSO); 20 mM Hepes pH 7.5, 200 mM NaCl, Tween 20 0.01%, 30 μl/min; settings: both partners purified

Ki (CDT1): 370 nM
Molecule: O=C(NNC(=S)N1CCOCC1)c1cnccn1 [AF615]

Molecule: Geminin (from UniProt O75496)
Kd (CDT1 (Homo sapiens)): 4.4 nM

Molecule: B1
Kd [1]: 9.4 nM
Kd [2]: 41 nM
Kd [3]: 25 nM

Molecule: B2
FRET mean intensity against cells expressing GFP-NLS and Geminin-dHcRed (CDT1-GFP): ~3 fold

Molecule: B3
AlphaScreen signal-to-background ratio [4]: > 20 fold

Molecule: B4
excess of untagged ΔDBGeminin needed for a similar signal reduction [5]: 100 fold
excess of untagged ΔDBGeminin needed for a similar signal reduction [6]: 10 fold

Molecule: B5
binding result [7]: binds
